Data published in US20160271157A1, “BETA-CATENIN” (UCL BUSINESS PLC, priority 2013, published 2016).

Key:
[1] = system: β-catenin translocation to the nucleus; test: β-catenin immunocytochemistry, 253J; format: cell-based, human; conditions: 253J bladder cancer cell line
Method: Immunostaining was performed in two different laboratories, independently with the experimenter blind to the identity of the treatment. Either cells used in FluoroDish, post [Ca^2+]i experiments using dyes (see above) or grown in 8 well chamber glass slides (Lab Tek II, Nunc) were used. For Wnt ligand treatment, the culture medium replaced with PBS (without calcium) at 37° C. The experiments were replicated for Wnt ligand or vehicle control as described for [Ca^2+]i measurements. Briefly, Wnt ligands were added and chamber slides incubated at 37° C. for up to 20 min. Chamber wells were washed 3× with 0.5 ml PBS and cells were fixed with 0.5 ml 4% formalin for 30 min at 4° C. Cells were washed 3× with ice cold PBS and stored in 0.5 ml PBS at 4° C. for immunostaining. In some experiments PC3 cells were treated with thaspsigargin as described above.
For immunostaining cells were washed twice for 5 minutes in TBST (20 mM Tris pH 7.4, 0.9% NaCl, 0.1% Tween 20, Sigma). Cells were then incubated in 20% normal goat serum (NGS)/TBST for 30 min at room temperature, the chambers were drained and cells were incubated with mouse anti-β-catenin (ab22656, Abcam, UK) at 1:500 dilution in NGS/TBST overnight at 4° C. […]
Fluorescence immunocytochemical staining for β-catenin expression in cell lines was imaged using Olympus Fluoview 1000 Confocal Microscope (Olympus KeyMed) mounted on an Olympus IX81 inverted microscope using a 20×0.7 NA or 40×1.0 NA dry objective with a zoom of ×3.4′,6-diamidino-2-phenylindole (DAPI, nuclear counterstain) was excited at 405 nm with an emission of 415-500 nm; Cy3 (β-catenin label) signal was excited at 561 nm with an emission spectrum between 570-670 nm. […]
Nuclear co-localization of β-catenin was calculated by importing FV files for untreated, control or treated cells, into colocalization plugin of Fiji software (http://fiji.sc/Fiji) for Cy3 (β-catenin) and DAPI (nuclear) signals. […] Statistical significance between untreated and treated cells was calculated using Mann Whitney U test.

[2] = system: MCF7 breast cancer cell line; test: Live [Ca2+]i imaging after addition of Wnt ligand, MCF7; format: cell-based, human; conditions: MCF7 cells
Method: (§1) The imaging protocol was developed in the inventor's laboratory and has been described in detail, elsewhere (Wang at al., (2010) PLoS ONE 5, e10456). Briefly, 100000-200000 PC3, MCF7, 253J or Cos 7 cells were plated on 35 mm FluoroDish (WPI) and grown for 48 h; calcium indicators Fluo-4 (Invitrogen) and FuraRed (Invitrogen) at 1 ng/ml were added to FluoroDish containing only 1 ml of culture medium and incubated for 15-20 min at 37° C. The culture medium was removed and washed (×2) and replaced with 1 ml PBS. Live cell calcium Imaging was performed on an Olympus FluoView FV 1000 confocal microscope (Olympus […]) equipped with a 20× dry objective (numerical aperture=0.75). Calcium indicators were excited with an argon laser line (488 nm) and emissions recorded in the green channel (500-560 nm) for Fluo-4 and red channel (600-700 nm) for FuraRed after addition of vehicle control (PBS) or Wnt X (30-600 ng/ml). Images were acquired every 1.1 or 2.2 seconds for up to 600-800s; image and data acquisition was performed using FluoView 1000 software (Olympus, UK). Fluorescent intensity was measured and data exported as a tab delimited file for further analysis using a spreadsheet. All imaging experiments were performed in duplicate; intracellular calcium at 100 ng/ml was measured in at least 3-12 different passages (passage numbers 25 to 37) of cell line for each Wnt ligand. Wnt 11 was tested in at least 5 different passages at 3 different concentrations. […] The measurements were exported as a tab delimited file into a spreadsheet for further analysis and Fluo4/Fura Red ratios were calculated. […] The time constants (rise, dwell and fall times) were calculated by first fitting the Fluo4/FuraRed ratio to a single Gaussian function (Origin Lab Corp., MA); a lower (10%) and upper (90%) amplitude thresholding method was then used to calculate the time constants (s). Statistical significance was calculated using Mann Whitney U test.

[3] = system: 253J urinary tract (bladder) cancer cell line; test: Live [Ca2+]i imaging after addition of Wnt ligand, 253J; format: cell-based, human; conditions: 253J cells
Method: as §1

PC3 cells = test: Scratch wound assay; format: cell-based; conditions: wounded PC3 cells, ±Wnts and thapsigargin, vs control untreated cells
Method: PC3 cells were grown in 24 well, ImageLock plates (Essen Bioscience, MI) to confluency and scratched using a wound maker device (Essen Bioscience, MI). Imaging (at 2 h intervals) and quantitation of wound width was performed as described earlier (Wang at al., (2010) PLoS ONE 5, e10456) using Incucyte (Essen Bioscience, MI). The rate of wound closure (±Wnts and thapsigargin) was calculated by fitting the line using linear regression function in Origin software (Origin Lab Corp., MA). Statistical significance of difference between the slopes for untreated and treated samples was calculated using F-test.

## Wnt10B: Recombinant Wnt peptide purchased from R&D systems
[1]
  β-catenin translocation into the nucleus after Wnt treatment: β-catenin translocation into the nucleus
[2]
  [Ca2+]i release in response to Wnt ligand: activated [Ca^2+]i release
[3]
  [Ca2+]i release in response to Wnt ligand: activated [Ca^2+]i release

## C/C=C(/C)C(=O)O[C@H]1C(C)=C2[C@H]([C@@H]1OC(=O)CCCCCCC)[C@@](C)(OC(C)=O)C[C@H](OC(=O)CCC)[C@@]1(O)[C@H]2OC(=O)[C@@]1(C)O [thapsigargin, reference compound]
PC3 cells
  rate of wound closure: significant decrease

B1: Wnt5A: Recombinant Wnt peptide purchased from R&D systems (protein, UniProt P41221 62-380, looked up)
Protein Wnt-5a: IIGAQPLCSQLAGLSQGQKKLCHLYQDHMQYIGEGAKTGIKECQYQFRHRRWNCSTVDNTSVFGRVMQIGSRETAFTYAVSAAGVVNAMSRACREGELSTCGCSRAARPKDLPRDWLWGGCGDNIDYGYRFAKEFVDARERERIHAKGSYESARILMNLHNNEAGRRTVYNLADVACKCHGVSGSCSLKTCWLQLADFRKVGDALKEKYDSAAAMRLNSRGKLVQVNSRFNSPTTQDLVYIDPSPDYCVRNESTGSLGTQGRLCNKTSEGMDGCELMCCGRGYDQFKTVQTERCHCKFHWCCYVKCKKCTEIVDQFVCK
[1]
  β-catenin translocation into the nucleus after Wnt treatment: β-catenin translocation into the nucleus
[2]
  [Ca2+]i release in response to Wnt ligand: activated [Ca^2+]i release
[3]
  [Ca2+]i release in response to Wnt ligand: activated [Ca^2+]i release

B2: Wnt9B: Recombinant Wnt peptide purchased from R&D systems (protein, UniProt O14905 23-357, looked up)
Protein Wnt-9b: SYFGLTGREVLTPFPGLGTAAAPAQGGAHLKQCDLLKLSRRQKQLCRREPGLAETLRDAAHLGLLECQFQFRHERWNCSLEGRMGLLKRGFKETAFLYAVSSAALTHTLARACSAGRMERCTCDDSPGLESRQAWQWGVCGDNLKYSTKFLSNFLGSKRGNKDLRARADAHNTHVGIKAVKSGLRTTCKCHGVSGSCAVRTCWKQLSPFRETGQVLKLRYDSAVKVSSATNEALGRLELWAPARQGSLTKGLAPRSGDLVYMEDSPSFCRPSKYSPGTAGRVCSREASCSSLCCGRGYDTQSRLVAFSCHCQVQWCCYVECQQCVQEELVYTCKH
[1]
  β-catenin translocation into the nucleus after Wnt treatment: β-catenin translocation into the nucleus
[2]
  [Ca2+]i release in response to Wnt ligand: activated [Ca^2+]i release
[3]
  [Ca2+]i release in response to Wnt ligand: activated [Ca^2+]i release
